Measurements: PMC11786531

Each substance was assayed against heparan sulfate proteoglycans (assay: SPR competition (HSPG with LF or LF mutant flowed over PEDV S protein immobilised on a CM5 chip)). Conditions: parent: est. 5.0; read off a plot.
In the case of “Lactoferrin (from UniProt P14632) P1963L”, the response was 69 RU. “Lactoferrin (from UniProt P14632) P1641L” showed a response of 69 RU. “Lactoferrin (from UniProt P14632) G1607L” was tested, and the response was 3.5 RU.
